Assay results: the Human Domainome abundance scans (Beltran et al. 2025)
± gives the uncertainty stated by the source.

B1: Protein S100-G, residues 1 to 79; numbered along this chain, P02633 (parent)
chain: MSAKKSPEELKGIFEKYAAKEGDPNQLSKEELKLLLQTEFPSLLKGPSTLDELFEELDKNGDGEVSFEEFQVLVKKISQ

Variants of: B1
Test: abundance fitness (aPCA) (normalised: wild type 0, dead -1); higher = more abundant; growth selection in yeast, the domain comes from the species named
Conditions: Bos taurus

Question: For MSAKKSPEELKGIFEKYAAKEGDPNQLSQEELKLLLQTEFPSLLKGPSTLDELFEELDKNGDGEVSFEEFQVLVKKISQ [K29Q], which abundance fitness is on record?
Answer: -0.099 ± 0.085

Question: Which abundance fitness does the source give for MSAKKSPEELKGIFEKYAAKEGDPNQLSSEELKLLLQTEFPSLLKGPSTLDELFEELDKNGDGEVSFEEFQVLVKKISQ [K29S] here?
Answer: -0.006 ± 0.068

Question: For MSAKKSPEELKGIFEKYAAKEGDPNQLSREELKLLLQTEFPSLLKGPSTLDELFEELDKNGDGEVSFEEFQVLVKKISQ [K29R], which abundance fitness is on record?
Answer: 0.027 ± 0.065

Question: For MSAKKSPEELKGIFEKYAAKEGDPNQLSTEELKLLLQTEFPSLLKGPSTLDELFEELDKNGDGEVSFEEFQVLVKKISQ [K29T], which abundance fitness is on record?
Answer: 0.007 ± 0.079

Question: Which abundance fitness does the source give for MSAKKSPEELKGIFEKYAAKEGDPNQLSVEELKLLLQTEFPSLLKGPSTLDELFEELDKNGDGEVSFEEFQVLVKKISQ [K29V] here?
Answer: 0.038 ± 0.07

Question: Which abundance fitness does the source give for MSAKKSPEELKGIFEKYAAKEGDPNQLSYEELKLLLQTEFPSLLKGPSTLDELFEELDKNGDGEVSFEEFQVLVKKISQ [K29Y] here?
Answer: 0.12 ± 0.086

Question: Which abundance fitness does the source give for MSAKKSPEELKGIFEKYAAKEGDPNQLSKECLKLLLQTEFPSLLKGPSTLDELFEELDKNGDGEVSFEEFQVLVKKISQ [E31C] here?
Answer: -0.153 ± 0.097

Question: For MSAKKSPEELKGIFEKYAAKEGDPNQLSKEHLKLLLQTEFPSLLKGPSTLDELFEELDKNGDGEVSFEEFQVLVKKISQ [E31H], which abundance fitness is on record?
Answer: -0.016 ± 0.086

Question: For MSAKKSPEELKGIFEKYAAKEGDPNQLSKEKLKLLLQTEFPSLLKGPSTLDELFEELDKNGDGEVSFEEFQVLVKKISQ [E31K], which abundance fitness is on record?
Answer: -0.006 ± 0.1

Question: With MSAKKSPEELKGIFEKYAAKEGDPNQLSKEILKLLLQTEFPSLLKGPSTLDELFEELDKNGDGEVSFEEFQVLVKKISQ [E31I] as the variant, how does the abundance fitness read?
Answer: 0.032 ± 0.089

Question: For MSAKKSPEELKGIFEKYAAKEGDPNQLSKEFLKLLLQTEFPSLLKGPSTLDELFEELDKNGDGEVSFEEFQVLVKKISQ [E31F], which abundance fitness is on record?
Answer: -0.123 ± 0.091

Question: Which abundance fitness does the source give for MSAKKSPEELKGIFEKYAAKEGDPNQLSKEDLKLLLQTEFPSLLKGPSTLDELFEELDKNGDGEVSFEEFQVLVKKISQ [E31D] here?
Answer: 0.054 ± 0.11

Question: Which abundance fitness does the source give for MSAKKSPEELKGIFEKYAAKEGDPNQLSKEALKLLLQTEFPSLLKGPSTLDELFEELDKNGDGEVSFEEFQVLVKKISQ [E31A] here?
Answer: -0.108 ± 0.09

Question: For MSAKKSPEELKGIFEKYAAKEGDPNQLSKEMLKLLLQTEFPSLLKGPSTLDELFEELDKNGDGEVSFEEFQVLVKKISQ [E31M], which abundance fitness is on record?
Answer: -0.007 ± 0.1

Question: For MSAKKSPEELKGIFEKYAAKEGDPNQLSKELLKLLLQTEFPSLLKGPSTLDELFEELDKNGDGEVSFEEFQVLVKKISQ [E31L], which abundance fitness is on record?
Answer: -0.045 ± 0.074

Question: With MSAKKSPEELKGIFEKYAAKEGDPNQLSKEGLKLLLQTEFPSLLKGPSTLDELFEELDKNGDGEVSFEEFQVLVKKISQ [E31G] as the variant, how does the abundance fitness read?
Answer: 0.015 ± 0.084

Question: For MSAKKSPEELKGIFEKYAAKEGDPNQLSKYELKLLLQTEFPSLLKGPSTLDELFEELDKNGDGEVSFEEFQVLVKKISQ [E30Y], which abundance fitness is on record?
Answer: -0.042 ± 0.083

Question: For MSAKKSPEELKGIFEKYAAKEGDPNQLSKLELKLLLQTEFPSLLKGPSTLDELFEELDKNGDGEVSFEEFQVLVKKISQ [E30L], which abundance fitness is on record?
Answer: -0.053 ± 0.062

Question: For MSAKKSPEELKGIFEKYAAKEGDPNQLSKGELKLLLQTEFPSLLKGPSTLDELFEELDKNGDGEVSFEEFQVLVKKISQ [E30G], which abundance fitness is on record?
Answer: -0.057 ± 0.082

Question: For MSAKKSPEELKGIFEKYAAKEGDPNQLSKIELKLLLQTEFPSLLKGPSTLDELFEELDKNGDGEVSFEEFQVLVKKISQ [E30I], which abundance fitness is on record?
Answer: -0.032 ± 0.085

Question: Which abundance fitness does the source give for MSAKKSPEELKGIFEKYAAKEGDPNQLSKPELKLLLQTEFPSLLKGPSTLDELFEELDKNGDGEVSFEEFQVLVKKISQ [E30P] here?
Answer: 0.026 ± 0.074

Question: Which abundance fitness does the source give for MSAKKSPEELKGIFEKYAAKEGDPNQLSKSELKLLLQTEFPSLLKGPSTLDELFEELDKNGDGEVSFEEFQVLVKKISQ [E30S] here?
Answer: 0.048 ± 0.062

Question: Which abundance fitness does the source give for MSAKKSPEELKGIFEKYAAKEGDPNQLSKDELKLLLQTEFPSLLKGPSTLDELFEELDKNGDGEVSFEEFQVLVKKISQ [E30D] here?
Answer: 0.073 ± 0.084

Question: With MSAKKSPEELKGIFEKYAAKEGDPNQLSKQELKLLLQTEFPSLLKGPSTLDELFEELDKNGDGEVSFEEFQVLVKKISQ [E30Q] as the variant, how does the abundance fitness read?
Answer: 0.04 ± 0.078

Question: With MSAKKSPEELKGIFEKYAAKEGDPNQLSKVELKLLLQTEFPSLLKGPSTLDELFEELDKNGDGEVSFEEFQVLVKKISQ [E30V] as the variant, how does the abundance fitness read?
Answer: 0.071 ± 0.07

Question: Which abundance fitness does the source give for MSAKKSPEELKGIFEKYAAKEGDPNQLSKMELKLLLQTEFPSLLKGPSTLDELFEELDKNGDGEVSFEEFQVLVKKISQ [E30M] here?
Answer: 0.022 ± 0.08

Question: For MSAKKSPEELKGIFEKYAAKEGDPNQLSKNELKLLLQTEFPSLLKGPSTLDELFEELDKNGDGEVSFEEFQVLVKKISQ [E30N], which abundance fitness is on record?
Answer: 0.061 ± 0.085

Question: Which abundance fitness does the source give for MSAKKSPEELKGIFEKYAAKEGDPNQLSKAELKLLLQTEFPSLLKGPSTLDELFEELDKNGDGEVSFEEFQVLVKKISQ [E30A] here?
Answer: -0.016 ± 0.074

Question: With MSAKKSPEELKGIFEKYAAKEGDPNQLSKRELKLLLQTEFPSLLKGPSTLDELFEELDKNGDGEVSFEEFQVLVKKISQ [E30R] as the variant, how does the abundance fitness read?
Answer: 0.03 ± 0.066

Question: With MSAKKSPEELKGIFEKYAAKEGDPNQLSKFELKLLLQTEFPSLLKGPSTLDELFEELDKNGDGEVSFEEFQVLVKKISQ [E30F] as the variant, how does the abundance fitness read?
Answer: -0.006 ± 0.077

Question: For MSAKKSPEELKGIFEKYAAKEGDPNQLSKWELKLLLQTEFPSLLKGPSTLDELFEELDKNGDGEVSFEEFQVLVKKISQ [E30W], which abundance fitness is on record?
Answer: -0.074 ± 0.086

Question: With MSAKKSPEELKGIFEKYAAKEGDPNQLSKKELKLLLQTEFPSLLKGPSTLDELFEELDKNGDGEVSFEEFQVLVKKISQ [E30K] as the variant, how does the abundance fitness read?
Answer: -0.023 ± 0.084

Question: For MSAKKSPEELKGIFEKYAAKEGDPNQLSKHELKLLLQTEFPSLLKGPSTLDELFEELDKNGDGEVSFEEFQVLVKKISQ [E30H], which abundance fitness is on record?
Answer: -0.026 ± 0.077

Question: Which abundance fitness does the source give for MSAKKSPEELKGIFEKYAAKEGDPNQLSKTELKLLLQTEFPSLLKGPSTLDELFEELDKNGDGEVSFEEFQVLVKKISQ [E30T] here?
Answer: -0.001 ± 0.068

Question: With MSAKKSPEELKGIFEKYAAKEGDPNQLSKCELKLLLQTEFPSLLKGPSTLDELFEELDKNGDGEVSFEEFQVLVKKISQ [E30C] as the variant, how does the abundance fitness read?
Answer: -0.018 ± 0.086
